As a reminder, the Kd is a measure of binding affinity in units of concentration. Read a high Kd as lower affinity.

In the test the target is B-Myb negative regulatory domain, amino acids 440-600 (NRD^440-600) (human, UniProt P10244-1 440-600). Nature of the test: ITC. Background: ITC needs no label: the signal is the heat of the interaction.
Chain of B-Myb negative regulatory domain, amino acids 440-600 (NRD^440-600) (P10244 440-600): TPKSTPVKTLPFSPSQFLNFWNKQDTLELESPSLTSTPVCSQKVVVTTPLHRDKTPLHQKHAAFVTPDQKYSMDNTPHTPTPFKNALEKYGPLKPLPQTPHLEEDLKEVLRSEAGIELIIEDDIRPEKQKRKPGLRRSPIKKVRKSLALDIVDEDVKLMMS

B1: B-Myb DNA binding domain (B-Myb^34-183) (domain or fragment)
chain: not shown
Take B1: the Kd worked out at 4.5 µM.

The values above are taken from publication doi:10.1101/2022.06.13.495963 (bioRxiv, 2022).
